{
  "source": "the RNAGym collection of RNA variant scans (doi:10.7554/elife.80360)",
  "parents": {"B1": {"name": "Hairpin Ribozyme (parent)", "chain": "GUCCUCUUUCACGUGCGCGUGAAAGAGAGAAGUGAACCAGAGAAACACACGUUGUGGUAUAUUACCUGGUA"}},
  "data": [
    {"variants_of": "B1", "assay": "self-cleavage, relative activity (ratio to wild type); higher = more cleavage; co-transcriptional", "values": [
      {"variant": "GUCCUCUUUCACGAGCGCGUGAAAGAGAGAAGUGAACCAGAGGAACACACGUUGUGGUAUAUUACCUGGUA", "note": "[U14A A43G]", "self-cleavage": 0.147},
      {"variant": "GUCCUCUUUCACUUGCGCGUGAAAGAGAGAAGUGAACCAGAGAAACACACGUUGUAGUAUAUUACCUGGUA", "note": "[G13U G56A]", "self-cleavage": 0.127},
      {"variant": "GUCCUCUUUCACUUGCGCGUGAAAGAGAGAAGUGAACCAGAGAAACACACGUUGUUGUAUAUUACCUGGUA", "note": "[G13U G56U]", "self-cleavage": 0.135},
      {"variant": "GUCCUCUUUCACUUGCGCGUGAAAGAGAGAAGUGAACCAGAGAAACACACGUUGGGGUAUAUUACCUGGUA", "note": "[G13U U55G]", "self-cleavage": 0.124},
      {"variant": "GUCCUCUUUCACUUGCGCGGGAAAGAGAGAAGUGAACCAGAGAAACACACGUUGUGGUAUAUUACCUGGUA", "note": "[G13U U20G]", "self-cleavage": 0.815},
      {"variant": "GUCCUCUUUCACUUGCGCGUGAAAGAGAGAAGUGAACCAGAGAAACAUACGUUGUGGUAUAUUACCUGGUA", "note": "[G13U C48U]", "self-cleavage": 0.125},
      {"variant": "GUCCUCUUUCACUUGCGCGUGAAAGAGAGAAGUGAACCAGAGAAACAAACGUUGUGGUAUAUUACCUGGUA", "note": "[G13U C48A]", "self-cleavage": 0.0958},
      {"variant": "GUCCUCUUUCACUAGCGCGUGAAAGAGAGAAGUGAACCAGAGAAACACACGUUGUGGUAUAUUACCUGGUA", "note": "[G13U U14A]", "self-cleavage": 0.88},
      {"variant": "GUCCUCUUUCACUGGCGCGUGAAAGAGAGAAGUGAACCAGAGAAACACACGUUGUGGUAUAUUACCUGGUA", "note": "[G13U U14G]", "self-cleavage": 0.729},
      {"variant": "GUCCUCUUUCACUUGCGCGUGAAAGAGAGAAGUGAACCAGAGAACCACACGUUGUGGUAUAUUACCUGGUA", "note": "[G13U A45C]", "self-cleavage": 0.141},
      {"variant": "GUCCUCUUUCACUUGCGCGUGAAAGAGAGAAGUCAACCAGAGAAACACACGUUGUGGUAUAUUACCUGGUA", "note": "[G13U G34C]", "self-cleavage": 0.998},
      {"variant": "GUCCUCUUUCACUUGCGCGUGAAAGAGAGAAGUUAACCAGAGAAACACACGUUGUGGUAUAUUACCUGGUA", "note": "[G13U G34U]", "self-cleavage": 1.12},
      {"variant": "GUCCUCUUUCACUUGCGCGUGAAAGAGAGAAGUAAACCAGAGAAACACACGUUGUGGUAUAUUACCUGGUA", "note": "[G13U G34A]", "self-cleavage": 1.1},
      {"variant": "GUCCUCUUUCACGAGCGCGUGAAAGAGUGAAGUGAACCAGAGAAACACACGUUGUGGUAUAUUACCUGGUA", "note": "[U14A A28U]", "self-cleavage": 0.574},
      {"variant": "GUCCUCUUUCACUUGCGCGUGAAAUAGAGAAGUGAACCAGAGAAACACACGUUGUGGUAUAUUACCUGGUA", "note": "[G13U G25U]", "self-cleavage": 0.527},
      {"variant": "GUCCUCUUUCACUUGCGCGUGAAAAAGAGAAGUGAACCAGAGAAACACACGUUGUGGUAUAUUACCUGGUA", "note": "[G13U G25A]", "self-cleavage": 0.559},
      {"variant": "GUCCUCUUUCACUUGCGCGUGAAAGAGAGAAGUGAACCAGAGAAACACACGUUGUGGUAUAUCACCUGGUA", "note": "[G13U U63C]", "self-cleavage": 0.181},
      {"variant": "GUCCUCUUUCACUUGCGCGUGAAAGAGAGAAGUGAACCAGAGAAACACACGUUGUGGUAUAUAACCUGGUA", "note": "[G13U U63A]", "self-cleavage": 0.103},
      {"variant": "GUCCUCUUUCACUUGCGCGUGAAAGAGAGAAGUGAACCAGAUAAACACACGUUGUGGUAUAUUACCUGGUA", "note": "[G13U G42U]", "self-cleavage": 0.289},
      {"variant": "GUCCUCUUUCACUUGCGCGUGAAAGAGAGAAGUGAACCAGAAAAACACACGUUGUGGUAUAUUACCUGGUA", "note": "[G13U G42A]", "self-cleavage": 0.16},
      {"variant": "GUCCUCUUUCACUUGCGCGUGAACGAGAGAAGUGAACCAGAGAAACACACGUUGUGGUAUAUUACCUGGUA", "note": "[G13U A24C]", "self-cleavage": 0.563},
      {"variant": "GUCCUCUUUCACUUGCGCGUGAAUGAGAGAAGUGAACCAGAGAAACACACGUUGUGGUAUAUUACCUGGUA", "note": "[G13U A24U]", "self-cleavage": 0.595},
      {"variant": "GUCCUCUUUCACUUGCGCGUGAAAGAGAGAAGUGAACCAGAGAAACACUCGUUGUGGUAUAUUACCUGGUA", "note": "[G13U A49U]", "self-cleavage": 0.169},
      {"variant": "GUCCUCUUUCACUUGCGCGUGAAAGAGAGACGUGAACCAGAGAAACACACGUUGUGGUAUAUUACCUGGUA", "note": "[G13U A31C]", "self-cleavage": 0.133},
      {"variant": "GUCCUCUUUCACUUGCGCGUGAAAGAGAGAAGUGCACCAGAGAAACACACGUUGUGGUAUAUUACCUGGUA", "note": "[G13U A35C]", "self-cleavage": 0.876},
      {"variant": "GUCCUCUUUCACUUGCGCGUGAAAGAGAGAAGUGGACCAGAGAAACACACGUUGUGGUAUAUUACCUGGUA", "note": "[G13U A35G]", "self-cleavage": 0.709},
      {"variant": "GUCCUCUUUCACUUGCGCGUGAAAGAGAGAAGUGAACCAGAGAAACACACGUUGUGAUAUAUUACCUGGUA", "note": "[G13U G57A]", "self-cleavage": 0.123},
      {"variant": "GUCCUCUUUCACUUGCGCGUGAAAGAGAGAAGUGAACCAGAGAAACACACGUUGUGGUAUAUUACCUGAUA", "note": "[G13U G69A]", "self-cleavage": 0.312},
      {"variant": "GUCCUCUUUCACCUGCGCGUGAAAGAGAGAAGUGAACCAGAGAAACACACGUUGUGGUAUAUUACCUGGGA", "note": "[G13C U70G]", "self-cleavage": 0.502},
      {"variant": "GUCCUCUUUCACUUGCGCGUGAAAGAGAGUAGUGAACCAGAGAAACACACGUUGUGGUAUAUUACCUGGUA", "note": "[G13U A30U]", "self-cleavage": 0.164},
      {"variant": "GUCCUCUUUCACUUGCGCGUGAAAGAGAGAAGUGAACCAGAGAAACACAGGUUGUGGUAUAUUACCUGGUA", "note": "[G13U C50G]", "self-cleavage": 0.259},
      {"variant": "GUCCUCUUUCACUUGCGCGUGAAAGAGAGAAGUGAACCAGAGAAACACAAGUUGUGGUAUAUUACCUGGUA", "note": "[G13U C50A]", "self-cleavage": 0.213},
      {"variant": "GUCCUCUUUCACUUGCGCGUGAAAGAGAGAAGUGAACCAGAGAAACACACGUUGUGGUAUAUUACCAGGUA", "note": "[G13U U67A]", "self-cleavage": 0.257},
      {"variant": "GUCCUCUUUCACUUGCGCGUGAAAGAGAGAAGUGAACCAGAGCAACACACGUUGUGGUAUAUUACCUGGUA", "note": "[G13U A43C]", "self-cleavage": 0.147},
      {"variant": "GUCCUCUUUCACUUGCGCGUGAAAGAGAGAAGUGAACCAGAGAAACACACGUUGUGGUAUAUUAUCUGGUA", "note": "[G13U C65U]", "self-cleavage": 0.301},
      {"variant": "GUCCUCUUUCACUUGCGCGUGAAAGAGAGAAGUGAACCAGAGAAACACACGUUGUGGUAUAUUAGCUGGUA", "note": "[G13U C65G]", "self-cleavage": 0.193},
      {"variant": "GUCCUCUUUCACUUGCGCGUGAAAGAGAGAAGUGAACCAGAGAAACACACGUGGUGGUAUAUUACCUGGUA", "note": "[G13U U53G]", "self-cleavage": 0.716},
      {"variant": "GUCCUCUUUCACGAGCGCGUGAAGGAGAGAAGUGAACCAGAGAAACACACGUUGUGGUAUAUUACCUGGUA", "note": "[U14A A24G]", "self-cleavage": 0.938}
    ]}
  ]
}
